The nature of this series: label from the status in PepcDB records.

As to “MDLGKPMKSVLVVALLVIFQVCLCQDEVTDDYIGDNTTVDYTLFESLCSKKDVRNFKAWFLPIMYSIICFVGLLGNGLVVLTYIYFKRLKTMTDTYLLNLAVADILFLLTLPFWAYSAAKSWVFGVHFCKLIFAIYKMSFFSGMLLLLCISIDRYVAIVQAVSAHRHRARVLLISKLSCVGIWILATVLSIPELLYSDLQRSSSEQAMRCSLITEHVEAFITIQVAQMVIGFLVPLLAMSFCYLVIIRTLLQARNFERNKAIKVIIAVVVVFIVFQLPYNGVVLAQTVANFNITSSTCELSKQLNIAYDVTYSLACVRCCVNPFLYAFIGVKFRNDLFKLFKDLGCLSQEQLRQWSSCRHIRRSSMSVEAETTTTFSP”, the protein production entry was “failed”.
As for “MDLIITFGLLTLVVLLEFIVVPAIILKRGTKFSTIYNYPIYIINSTEINAYSLTSVWGKFIVLTRGLVNGEDEEHIKAAIMHEVGHLKLNHHVKMSLYIISVIMVFTYLLGVNMLTLIPFALVALLVQRYLQRRLELGADRFALRFINKKMLEDLITKYDMKETTFLSTHPNIHVRLKNINE”, the protein production entry is on record as “failed”.
Regarding “MDLLIALLPALFWGSVVLINVLVGGGPYNQIRGTTLGTLIIGIILLLTGNAKFDDLAVIIVGLISGAFWALGQGYQLKSISLIGVSKTMPISTGLQLVGTTLFSAIFLGEWSTGIQVTLGLVAMVLLVIGIALTSIKGKNEASGGNNKFGKAIPILIISTVGYVVYVVVAQIFGVDGMNALFFQSIGMAIGGLILSAKHETSVKSTMWNIIPGVIWGIGNLFMFYSQPKVGVATSFSFSQLLVIVSTLGGIFLLGERKDKRQMIGIWAGIVLIIIAAFILGNLKG”, the protein production entry is on record as “failed”.
In the case of “MDLLSLLDINNTLVNIPIGGGYAMSWVEGFGTIFGLLCIWFASQEKTINYVFGLLNVTLFAVIFFQIQLYGLLLLQLFFFCANIYGWYAWTKPNSSGETLEVRWLSQSKLLAISGGSIAAIALLTIYIDPFFFSLATIAVDGMNLFGAELAEPVLAPDAFPFWDSTMTVLSIVAQILMTRKYVENWMLWIVINIISIGIYATQGVFAMSVQYSILMFIAANGAREWARTAKENINNKQVEKAIA” it was “failed”; in that of “MDLRIKNKAKKIKAVFFDIDDTLRIKDTGYMPDSIKKVFESLQEKDILTGIASGRAPYGVVPEIRQLNPDFFVTINGSYVINHKGEELSNDPIPKDIIEKYVVWCQEIGIEYGFAGKDKAVVSKRTELVDKALVPVYGFCPVEPDFYKNHEVYHMWTFEDVGDSLQLSDELKEDVRLVRWHENSSDVIKNGISKASGLAHVLKKVHLKPENVLFFGDGPNDMEIFDYVGLKVAMGNGHGDLKEKADFITKNVEEDGILYALEELGLVEKELQFPQLDVTNDDAPMALIKTNYGDLKVKLFPKQAPKTVANFVALAKDGYYDGVIFHRVIKDFMIQGGDPTGTGMGGESIYGERFEDEFSEELYNLRGALSMANAGPNTNGSQFFIVQNQNLPYSAKELERGGWPKEIAAAYAENGGTPHLDRRHSVFGQLVDQASYEALDNIANVDTGVADKPIDDIVIESIEVIDDENRG”, “failed”; in that of “MDLVPLKLVTIVAESLLEKRLVEEVKRLGAKGYTITPARGEGSRGIRSVDWEGQNIRLETIVSEEVALRILQRLQEEYFPHYAVIAYVENVWVVRGEKYV”, “not failed”.
In the case of “MDMLHAMRTFTRVVECGSFAAAANALDISAAQVSRIVAELENQLQTRLLHRTTRRLRMSEAGERFLERARQIMLLTEEAVGEARGAHLTPRGHLRLHCPHGMGLLLMPLVAGYNMLYPEVVIELTLSQRNPDPLAEGHDVVITVDGALPDSQLIAVPLGNIFSIPCAAPGYLDTHGVPERPEDLHGHRCLRMAYPMYEGDWVFPQGVDQCVIAPNDSFSTNVADAMLVASELGMGIGLLPFYTASEAIGQGRLCRLLAPYRLRESALYAMYPSRHYLDAKVRTWIDYLKEQLPALFEGHARVVDDARYWR” it was “failed”; in that of “MDMLKKRKLDENGIAMLHDGVSGSVSFRLVPQDARKITELFFADQLLDILQEAIVRHPDVLFFFF”, “failed”.
“MDMRSHEMIERRREDNGNNNGGVVISNIISTNIDDNCNGNNNNTRVSCNSQTLDHHQSKSPSSFSISAAAKPTVRYRECLKNHAASVGGSVHDGCGEFMPSGEEGTIEALRCAACDCHRNFHRKEMDGVGSSDLISHHRHHHYHHNQYGGGGGRRPPPPNMMLNPLMLPPPPNYQPIHHHKYGMSPPGGGGMVTPMSVAYGGGGGGAESSSEDLNLYGQSSGEGAGAAAGQMAFSMSSSKKRFRTKFTTDQKERMMDFAEKLGWRMNKQDEEELKRFCGEIGVKRQVFKVWMHNNKNNAKKPPTPTTTL”: the protein production result is “failed”.
With “MDNDAAKKQLEFLKGGFKLLCQSGGAIFGDADFDGGNLEASEWIAMTEAQFLGGDYSEKDKLACVSGFFGGQAKFWFHKELSWIPFNSWSQVKDGLLLTFGNNRDKKRVLVELDLEMKHWIKDFDRKREPHKFLES” the entry was “failed”; with “MDNVELSPATRWGMIATGLLQGLVCYLLIAWLSGKNHSWIVYGVPATVAFSSVLLFSVISFKQKRLWGWLALVFIATLGMSGWLKWQTDGMTPWRAEKALWDFGCYLLLMAMLLLPWIQQSLRIRNDSSRYRYFYQSVWHNVLILLVIFLANGLTWLVLLLWSELFKLVGITFFKTLFFATDWFIYLTLGLVTALAVILARTQSRLIDSIQKLFTLIATGLLPLVSLLTLMFIITLPFTGLSAISRHISAAGLLLTLAFLQLILMAIVRDPQKASLPWTGPLRCLIKTALLVAPLYVFIAAWALWLRVAQYGWTVDRLQGALAVLVLLVWSLGYFVSIVWRKGQNPLVLQGKVNLAVSLLVLVILVLLNSPVLDSMRISVNSHMARYQSGKNTPDQVTIYMLEHSGRYGRAALESLKSDAEYMKDPKRARDLLMALDGEQHLQQQISEKVLAENVLIAPGSGKPDATFWSALIQDRYNVMTCIEKDACVLVEQDLNSDGRAERILFAFDDERYIVYGFDPDKKEWQELTMSLLPRDITKEKLLTAAKDGKLGTKPKAWRDLVVDGERLDVNLNE”, “failed”; with “MDPAEMRYLEEEDGPLMKTIKGSITGFGAGTIYGTILATWKDVPRVERNVALPGLIRTLKMMGTHGLTFAAIGGVYIGVEQLVQNFRSKRDFYNGAIGGFVAGASVLGYRARSIPTAIAAGATLAVTSALIDSGGQTTRVDNGREYYPYTVEKRAEADS”, “not failed”.
With “MDPESIMAADGTDSAPANGGLAMENVCVKENGAVSVETVDTTSESQNENSANSSTLDTIEHVKEAAEGTQVEHVDDSKCMKGEKAQRKPRHEKLSGGKNNSSVHIKKSKEGKSADAKVAASNGSVAPNVQTTNPLKSKSFNGREAQVTKQGKHDSAPAESADGEKVKPKSQKKQAHETSEDDTQSSNSPKADDGKPRKVGALPNYGFSFKCDQRAEKRKEFYVKLEEKTHAKEEEINSMQAKSKETQEAELRMLRKSLNFKATPMPSFYQEPQPPKTELKKIPPTRPKSPKLGRKKTASGADSEETQTPRLGRLSLDERASKDNPTAKGIMPTVDLKKQPVRKSLPRLPSQKTVLPDGKPAPAKAAIIPAKVRPEKKKLEKDAETVNQTSHPTEEEAQVTVSSNADVEDSHETVSPRMNEDRADKSIEVSEAVAVEH” the entry was “failed”; with “MDPFASLAEAYEAWYGTPLGAYVIAEEERALKGLLPPGESLLEVGAGTGYWLRRLPYPQKVGVEPSEAMLAVGRRRAPEATWVRAWGEALPFPGESFDVVLLFTTLEFVEDVERVLLEARRVLRPGGALVVGVLEALSPWAALYRRLGEKGVLPWAQARFLAREDLKALLGPPEAEGEAVFLAPEAHPPYEEADLAGRRAGNRPALYLGRWR”, “not failed”.
With “MDPHVSHSAHLFSLRIAHALNEACVKDRYSFKRFGQDLLAGLTVGIIAIPLAMALAIASGVPPQYGLYTAIVGGFIIAMTGGSRYSVSGPTAAFVVLLYPIAQQFGLAGLLIATVMSGMMLVAMAMLRLGRLILYIPESVTLGFTAGIGVVIATLQLKDFFGLQIEHMPEQYFAKLMALGQALPSLHLPSLFIAAATLATMLLWPRLKIPVPAHLPAIALGSILALILNAMGAEIETIGTRFHYQLTDGGIGSGIPAVLPHFEWPWLQTGPNGQAFEFNLAAFQALLPAAFAIAMLGAIESLLCAVVLDGMTGKRHSANSELLGQGIGNIIAPFFGGIPATAAIARSAANVKAGAQSPIASMIHALVVLIGLVALAGILAYLPMSAMAALLLVVAWNMSEAPKAVHLLKTAPTSDILVFLSCFSLTVIFDMVIAISVGIILAALLFMKEIAEMTKLYDISSNKRYVDQSLPADWAVLKINGPLFFAAADRIFAEIASLTQDKQVIVLYLDGVSILDAGGLAALSKLIEKCKLNQTKLLITDLQFQPIRTLAKAKIQPVEGVLKFYPTLREALTEAPSPELEATPEATD” the entry was “failed”; with “MDPKSCENSSDVKGQTSDSVSKKVLIEEEEDVKKPQQGKENDSRMAKDVVSCSSNISAHVVHEEVADNVTAVSCNEAESDISKAKAKEFHTIDLSGVGERICRICHFGSDQSPEASGDDKSVSPELIEIGCKCKNELGLAHFHCAEAWFKLRGNR”, “failed”; with “MDPSQFNPTYIPGSPQMLTEENSRDDSGASQISSETLIKNLSNLTINASSESVSPLSEALLRRESVGAAVLREIEDEWLYSRRGVRTLLSVQREKMARLRYMLLGGVRTHERRPTNKEPKGVKKESRPFKCPCSFCVSNGWDPSENARIGNQDTKPLQP”, “failed”.
As for “MDPTVSLQLSVDRSSPVPLYFQLSQQLEAAIEHGTLTPGSLLGNEIELAARLGLSRPTVRQAIQSLVDKGLLVRRRGVGTQVVHSQVKRPLELSSLYDDLEAAGQRPATQVLLNTLVPASAEVAAALGVAEGSDVHQVERLRLAHGEPMAYLCNYLPTGLLGLDSEQLEATGLYRLMRAAGITLHSARQSVGARAATAVEGERLGEPEGAPLLTMQRTTFDDTGRAVEFGTHTYRASRYSFEFQLLVRP”, the protein production result was “failed”.
On to “MDQFEYIITLEFGNQNQVESAYQIFKSIPKKLKAKSIGEESIKSNNQDWQDWRVCDLEIDMITDFKNQTSKEEESDLITSQYLGHGIIRLFKLSNANNTLNEKEILTIPGDDTMICILFVPTYFTVHDLLHFYIGDDIVNKQVSNFRILRNQQKGMGFNFTVLIKFRNALDAKNFKEEFNGKSFSRMDPETCHVISVKEIVFQKKLFQRPAANEDFPYLLTDPFTVKKKKELVKVELPTCPVCLERMDSETTGLVTIPCQHTFHCQCLNKWKNSRCPVCRHSSLRLSRESLLKQAGDSAHCATCGSTDNLWICLICGNVGCGRYNSKHAIKHYEETLHCFAMDIRTQRVWDYAGDNYVHRLVQNEVDGKLVEVGGSGDDDNNDIGNSDELQNVVYGNRSKNGEKSNSNKKDGELAANFLRHREYHLEYVQVLISQLESQREYYELKLQEKDQTASDSSNVESLKKSMEDLKLQFQVTQKEWQKREMAQKSKLEEDMLVIEGLQANLDHLSKKQEQLERENKALEESKQDLEEQVKDLMFYLDSQEKFKDADESVKEGTILIQQPHGAAQASKSKKKRNKNKKAGK”, for which the protein production entry is “failed”.

Source of the values: a protein production outcome set (Wang et al. 2014).
